This is an account of results in patent US8906844B2 (SYNTONIX PHARMACEUTICALS, dated 2014).

What is called IC50 is the midpoint of a concentration-inhibition curve. A lower IC50 goes with greater potency in that assay. The Kd is the free concentration of one partner at which half of the binding sites on the other are occupied at equilibrium, for simple one-to-one binding. Lower therefore signals a tighter complex.

Like-named read-outs stand apart in the source and are kept apart here. Starred links: 1 amine or outer side, 2 acyl side, 3 side chain; linkers in the order of their positions; H or OH if unused. Positions of bridges follow the written chain, without caps; N, C: chain ends. Non-standard residues stand in square brackets, D forms with d. No end group written: not given here. X1 = 3(R)‑3‑amino‑2‑oxo‑1‑piperidine‑acetic acid, O=C1[C@H](N[*:1])CCCN1CC(=O)[*:2]; NMeL = CN[C@@H](CC(C)C)C(=O)O; Pen = CC(C)(S)[C@H](N)C(=O)O; NMeA = CN[C@@H](C)C(=O)O; βAla = NCCC(=O)O

Assay [1] has as its target T1, soluble human FcRn (shFcRn) (Homo sapiens, UniProt P55899).
T1 construct: made in house; host or cells: Chinese hamster ovary (CHO) cells, glutamine synthetase expression system
In kind it is binding. Particulars: IgG competition ELISA, 3 nM human IgG, buffer pH 6. A general note: An ELISA detects its analyte on a solid surface through an enzyme-linked reagent.
Procedure: A solution of soluble human FcRn (shFcRn) in Tris buffer was dialyzed twice, each time for 3 hours in 2 liters of PBS, pH 8.0. The quantity of recovered shFcRn was determined by measuring the absorbance at 280 nm. […] Biotinylation of shFcRn was accomplished by treating the dialyzed shFcRn with a 2-fold-molar excess of Sulfo-NHS-LC-Biotin (Invitrogen, Carlsbad, Calif.) for 2 hours at 4° C. Afterwards, the shFcRn-Sulfo-NHS-LC-Biotin reaction mixture was dialyzed twice in 2 L of cold PBS, followed by another absorbance reading to determine the concentration of the remaining protein. The biotinylated shFcRn was stored at 4° C. with 0.1% sodium azide until needed.
The wells were coated with 100 μl/well of 1 μg/ml biotinylated-shFcRn in Buffer A. The plate was sealed and incubated at 37° C. for 2 hours. Afterwards, the plate was washed with 200 μl/well of Buffer B (Buffer B: 100 mM MES pH 6, 150 mM NaCl, 0.5% BSA IgG-free (Jackson ImmunoResearch, West Grove, Pa.), 0.05% Tween-20). Then, 50 μl/well of 6 nM human IgG (Calbiochem, San Diego, Calif.) in Buffer B as well as 50 μl/well of the various peptide competitors (at various concentration) were added, so that the final concentration of IgG in the well was 3 nM. […] Once color developed, 100 μl/well of TMB stop solution (KPL, Gaithersburg, Md.) was added and the absorbance was measured at 450 nm.

The target of the next assay is T2, soluble human FcRn (Homo sapiens, UniProt P55899).
T2 construct: made in house; host or cells: Chinese hamster ovary (CHO) cells, glutamine synthetase expression system
Put plainly: Equilibrium binding constants (KD) by surface plasmon resonance (Biacore). Particulars: pH 6. As for the experimental part:
(§1) The following steps were performed to cross-link soluble human or cynomolgus FcRn to the dextran surface of a CM5 sensor chip (Biacore AB, Uppsala, Sweden) by an amine coupling reaction involving 1-ethyl-(3-dimethylaminopropyl)-carbodiimide hydrochloride (EDC) (Biacore AB, Uppsala, Sweden) and N-hydroxysuccinimide (NHS) (Biacore AB, Uppsala, Sweden) as recommended by Biacore (BIAapplications Handbook, version AB, section 4.2, Biacore AB, Uppsala, Sweden). The FcRn protein was diluted in 50 mM sodium acetate, pH 4.5 (Biacore AB, Uppsala, Sweden) to a concentration of 10 to 30 μg/ml and used to coat one flow cell on the sensor chip. Residual sites on the FcRn flow cell were blocked with 1 M ethanolamine hydrochloride pH 8.5 (Biacore AB, Uppsala, Sweden). A control flow cell was blocked with ethanolamine for reference subtraction. For analysis of the monomeric peptides, FcRn was coated to a final density of 4000-5000 response units (RU). For analysis of the peptide dimers, FcRn was coated to a density of 2000-2500 RU. […]
Ten 2-fold dilutions of the peptide were injected over the FcRn-CM5 chip at a rate of 20 μl/min for 2 min. […] Sensorgrams were generated and analyzed using BiaEval software version 3.1 (Biacore AB, Uppsala, Sweden). […]
Sensorgrams were generated and analyzed using BiaEval software version 3.1 (Biacore AB, Uppsala, Sweden). […]
A general note: SPR reads the build-up and loss of mass on a sensor chip optically.

For assay [2], the target named is T3, soluble human FcRn (shFcRn) (human, UniProt P55899 24-297; P61769 21-119, biotinylated with Sulfo-NHS-LC-Biotin in the ELISA; amine-coupled to a CM5 chip in SPR).
T3 construct: also called biotinylated shFcRn
Put plainly: SPR, pH 6.

For assay [3], the target named is T3, soluble human FcRn (shFcRn). Briefly: competition ELISA vs human IgG.
Assay [4] shares this target. Put plainly: SPR, pH 6. As for the experimental part: (§2) The following steps were performed to cross-link soluble human or cynomolgus FcRn to the dextran surface of a CM5 sensor chip (Biacore AB, Uppsala, Sweden) by an amine coupling reaction involving 1-ethyl-(3-dimethylaminopropyl)-carbodiimide hydrochloride (EDC) (Biacore AB, Uppsala, Sweden) and N-hydroxysuccinimide (NHS) (Biacore AB, Uppsala, Sweden) as recommended by Biacore (BIAapplications Handbook, version AB, section 4.2, Biacore AB, Uppsala, Sweden). The FcRn protein was diluted in 50 mM sodium acetate, pH 4.5 (Biacore AB, Uppsala, Sweden) to a concentration of 10 to 30 µg/ml and used to coat one flow cell on the sensor chip. Residual sites on the FcRn flow cell were blocked with 1 M ethanolamine hydrochloride pH 8.5 (Biacore AB, Uppsala, Sweden). A control flow cell was blocked with ethanolamine for reference subtraction. For analysis of the monomeric peptides, FcRn was coated to a final density of 4000-5000 response units (RU). For analysis of the peptide dimers, FcRn was coated to a density of 2000-2500 RU. All SPR measurements were performed using a BIACORE 3000 Instrument (Biacore AB Uppsala, Sweden). For measurements done at either pH 6 or pH 7.4, experiments were performed in 50 mM phosphate, 100 mM sodium chloride, 0.01% surfactant P20 (Biacore AB, Uppsala, Sweden).
(§3) A. Representative Procedure for the Determination of Binding Constant of Monomeric Peptides Ten 2-fold dilutions of the peptide were injected over the FcRn-CM5 chip at a rate of 20 µl/min for 2 min. The peptide was dissociated from the chip for 2.5 minutes with buffer. Any remaining peptide was removed from the chip with a 30 second injection of HBS-P buffer (Biacore AB, Uppsala, Sweden) at a rate of 30 µl/min. Sensorgrams were generated and analyzed using BiaEval software version 3.1 (Biacore AB, Uppsala, Sweden). The equilibrium RU observed for each injection was plotted against concentration. The equilibrium K_D values were derived by analysis of the plots using the steady state affinity model included in the BiaEval software.
This is another data set of the same source.

Assay [5] has the same target. Put plainly: SPR, pH 6. As for the experimental part:
as §2, §3
This is another data set of the same source.

The target is the same in assay [6]. Briefly: SPR, pH 7.4. As for the experimental part: as §2, §3
For assay [7] the target is unchanged. Briefly: SPR, pH 7.4. As for the experimental part: as §1, with “µg/ml” for “μg/ml”
(§4) A. Representative Procedure for the Determination of Binding Constant of Monomeric Peptides Ten 2-fold dilutions of the peptide were injected over the FcRn-CM5 chip at a rate of 20 µl/min for 2 min. […] Sensorgrams were generated and analyzed using BiaEval software version 3.1 (Biacore AB, Uppsala, Sweden). […]
This is another data set of the same source.

For assay [8] the target is unchanged. Put plainly: competition ELISA vs human IgG. This is another data set of the same source.
Assay [9] has the same target. Put plainly: competition ELISA vs human IgG. As for the experimental part: (§5) The wells were coated with 100 μl/well of 1 μg/ml biotinylated-shFcRn in Buffer A. The plate was sealed and incubated at 37° C. for 2 hours. Afterwards, the plate was washed with 200 μl/well of Buffer B (Buffer B: 100 mM MES pH 6, 150 mM NaCl, 0.5% BSA IgG-free (Jackson ImmunoResearch, West Grove, Pa.), 0.05% Tween-20). […] To allow for mixing, the plate was rocked for 2 minutes, sealed and incubated at 37° C. for 2 hours. […] The plate was covered, incubated for 30 minutes at room temperature and washed 4 times with 200 μl/well of ice-cold buffer B. SureBlue TMB substrate solution (100 μl/well, KPL, Gaithersburg, Md.) was added and the plate was allowed to incubate at room temperature until color developed, which took 5 to 10 minutes. Once color developed, 100 μl/well of TMB stop solution (KPL, Gaithersburg, Md.) was added and the absorbance was measured at 450 nm.
This is another data set of the same source.

The target is the same in assay [10]. Briefly: competition ELISA vs human IgG. As for the experimental part: as §5
This is another data set of the same source.

Assay [11] has the same target. Put plainly: SPR, pH 6; Tyr replaced by NMeTyr (N-methyl scan). As for the experimental part: as §1, with “µg/ml” for “μg/ml”
as §4

Assay [12] shares this target. Briefly: SPR, pH 6; small-letter c (D-cysteine) at first Cys position, no Pen. As for the experimental part: as §1, with “µg/ml” for “μg/ml”
as §4

Assay [13] shares this target. Briefly: SPR, pH 6; small-letter c (D-cysteine) at both Cys positions. As for the experimental part:
as §1, with “µg/ml” for “μg/ml”
as §4

T3 sequence (P55899 24-297 limits assumed, chain 1 of 2): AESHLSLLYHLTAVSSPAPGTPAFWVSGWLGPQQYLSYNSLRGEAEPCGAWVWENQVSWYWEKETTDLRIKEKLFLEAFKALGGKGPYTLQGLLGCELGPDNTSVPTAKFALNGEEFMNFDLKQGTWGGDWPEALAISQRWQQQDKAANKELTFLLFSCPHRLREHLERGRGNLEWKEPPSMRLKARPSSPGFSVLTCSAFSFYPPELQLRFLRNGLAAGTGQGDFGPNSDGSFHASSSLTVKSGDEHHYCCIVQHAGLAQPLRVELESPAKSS
T3 sequence (P61769 21-119 limits assumed, chain 2 of 2): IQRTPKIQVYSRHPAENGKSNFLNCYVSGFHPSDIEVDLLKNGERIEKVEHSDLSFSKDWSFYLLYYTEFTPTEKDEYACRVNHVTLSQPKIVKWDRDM
T1 sequence (P61769 21-119): as the sequence (P61769 21-119 limits assumed, chain 2 of 2) above
T1 sequence (P55899 24-297): as the sequence (P55899 24-297 limits assumed, chain 1 of 2) above
T2 sequence (P55899 24-297): as the sequence (P55899 24-297 limits assumed, chain 1 of 2) above
T2 sequence (P61769 21-119, further chain): as the sequence (P61769 21-119 limits assumed, chain 2 of 2) above

Molecule “QRFCGHF[βAla]LYPCNGP (cysteine pairing not given here) [Peptide No. 25]” showed an IC50 in [1] of over 125000 nM. For the same molecule, the Kd on soluble human FcRn is over 250000 nM.

RF[Pen][NMeA]GHF[X1][NMeL]YPC-NH2 (disulfide 3-12 (inferred)) [Peptide No. 228] returned a Kd in assay [2] of 145 nM. In [3], the IC50 is 1100 nM.

In the case of RFXTGHFGXXYPC (Pen3; Sar9; NMeLeu10; disulfide; C-terminal amide) [Peptide No. 235], the Kd is 31 nM in assay [4], 31 nM in [5], 170 nM in assay [6] and 170 nM in [7]. For the same molecule, the IC50 in assay [8] and in assay [9] was 490 nM throughout.

The molecule RFVTGHFGXXYPA (Sar9; NMeLeu10; unbridged; C-terminal amide) [Peptide No. 236] showed a Kd in assay [6] of 9000 nM. The IC50 in assay [8] and in [10] was 37000 nM throughout.

For QRFXTGHFGGLXPCNGP (Pen4; NMeTyr12; disulfide; C-terminal amide) [Peptide No. 114], in assay [11], binding was put at a Kd of 92000 nM.

In [12], QRFXTGHFGGLYPCNGP (D-Cys4; disulfide; C-terminal amide) [Peptide No. 29] showed a Kd of 150000 nM.

With QRFXTGHFGGLYPXNGP (D-Cys4; D-Cys14; disulfide; C-terminal amide) [Peptide No. 31], the IC50 in [8] is over 500000 nM. In [13], this molecule returned a Kd of 200000 nM.
